The source of these data is patent publication WO2018237338A1 (dated 2018).

Where a chain is given by its changes, count along the chain named. Names may count otherwise.

Experiment [1] deals with T1, human alpha-synuclein protein, monomeric (human, UniProt P37840 1-140). The experiment is described as follows: SPR (Biacore), full-cycle kinetics: IgG captured on anti-human Fc CM5 chip, alpha-synuclein monomer injected, 1:1 Langmuir fit. For orientation: SPR reads the build-up and loss of mass on a sensor chip optically.
In experiment [2] the target is T1, human alpha-synuclein protein, monomeric. The experiment is described as follows: SPR (Biacore).
Experiment [3] has the same target. Kind of experiment: SPR (Biacore), single-cycle kinetics, alpha-synuclein monomer.
Experiment [4] has as its target human alpha-synuclein protein (full-length; monomer/oligomer form not specified at the place) (human, UniProt P37840 1-140). Kind of experiment: SPR (Biacore T200), protein captured by anti-human-Fc on a CM5 chip, recombinant alpha-synuclein injected (Table 14).

B1: Clone 3C02 (antibody, human IgG1, V domains shown)
VH: EVKLLESGGGLVQPGGSLKLSCAASGFTFSDYGMHWVRQAPEKGLEWIAYISRGSSAIYYADAVKGRFTISRDNAKNTLFLQMTSLRSEDTAMYYCRSPLRYFDVWGTGTSVTVSS
VL: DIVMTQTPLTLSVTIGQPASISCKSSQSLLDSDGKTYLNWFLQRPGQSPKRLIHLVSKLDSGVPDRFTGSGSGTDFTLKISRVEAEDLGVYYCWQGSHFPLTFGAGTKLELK
notes: Mouse variable regions with human IgG1 and kappa constant regions
In general, Kd refers to the free concentration of one partner at which half of the binding sites on the other are occupied at equilibrium, for simple one-to-one binding. A word on the koff: it is the first-order rate constant of dissociation. The term kon denotes a measure of how fast the partners come together. Read a low kon as slower complex formation. For the molecule B1, in experiment [1], the affinity, expressed as Kd, was 29.3 nM; the koff came to 0.0012 s⁻¹; the kon was 41000 M⁻¹ s⁻¹.

B2: Clone 1F06 (antibody, V domains shown)
VH: EVKLVESGGGLVKPGGSLKLSCAASGFIFSDYGMHWVRQAPEKGLEWIAFISSGNNTVYYADTVKGRFTISRDSAKKTLFLQMTSLRSEDTAMYYCVRHSNFCDYWGQGTSVTVSS
VL: DVQMTQTPLSLPVSLGDQASISCRSSQSIVHSNGNTYLEWYLQKPGQSPKLLIYKVSNRFSGVPDRFSGSGSGTDFTLKISRVEAEDLGVYYCFQGSHVPPTFGAGTKLELK
notes: also called antibody 1F06
Turning to B2, in experiment [2], the binding result is listed as “binds”.

B3: Clone 1F06 C99M (antibody, human IgG1, V domains shown)
VH: B2 VH with C103M
VL: B2 VL
notes: Human IgG1/kappa chimeric format like 1F06; C99 (Kabat, CDR-H3) is replaced by Met; also called 1F06 C99M variant; C99M variant of 1F06
As for B3, the binding result in experiment [3] is listed as “binds”.

B4: 1F4/35.21.17.2 (bispecific antibody, human IgG1, kappa)
heavy 1: EVQLVESGGGLVQPKGSLKLSCAASGFSFNTYAMNWVRQAPGKGLEWVARIRTKSNNYATYYADSVKDRFTISRDDSESKFHLQMNNLKTEDTAIYYCVRQGIDFYAMDYWGQGTSVTVSSASTKGPSVFPLAPSSKSTSGGTAALGCLVKDYFPEPVTVSWNSGALTSGVHTFPAVLQSSGLYSLSSVVTVPSSSLGTQTYICNVNHKPSNTKVDKKVEPKSCDKTHTCPPCPAPELLGGPSVFLFPPKPKDTLMISRTPEVTCVVVDVSHEDPEVKFNWYVDGVEVHNAKTKPREEQYNSTYRVVSVLTVLHQDWLNGKEYKCKVSNKALPAPIEKTISKAKGQPREPQVYTLPPSRDELTKNQVSLWCLVKGFYPSDIAVLWESYGTEWASYKTTPPVLDSDGSFFLYSKLTVTKEEWQQGFVFSCSVMHEALHNHYTQKSLSLSPGK
heavy 2: not shown
light: DVLMTQSPLSLSVSLGDQASISCRSSRDIVHSNGNTYLEWYLQKPGQSPKLLIYKVSNRFSGVPDRFSGSGSGTDFTLKISRVEAEDLGVYYCFQGTLIPLTFGAGTKLELKRTVAAPSVFIFPPSDEQLKSGTASVVCLLNNFYPREAKVQWKVDNALQSGNSQESVTEQDSKDSTYSLSSTLTLSKADYEKHKVYACEVTHQGLSSPVTKSFNRGEC
For the molecule B4, the binding result in experiment [4] is given as “binds”.

B5: 2F09/35.21.17.2 (bispecific antibody, human IgG1, kappa)
heavy 1: EVHVKQSGPELVEPGASVKISCKTSGYTFASYAISWVKQRTGQGLEWIGEIYPGSGDTYYDEKFKGKATLTADKSSSTAYMELRSLTSEDSAVYFCASDYDAYWGQGTLVTVSAASTKGPSVFPLAPSSKSTSGGTAALGCLVKDYFPEPVTVSWNSGALTSGVHTFPAVLQSSGLYSLSSVVTVPSSSLGTQTYICNVNHKPSNTKVDKKVEPKSCDKTHTCPPCPAPELLGGPSVFLFPPKPKDTLMISRTPEVTCVVVDVSHEDPEVKFNWYVDGVEVHNAKTKPREEQYNSTYRVVSVLTVLHQDWLNGKEYKCKVSNKALPAPIEKTISKAKGQPREPQVYTLPPSRDELTKNQVSLWCLVKGFYPSDIAVLWESYGTEWASYKTTPPVLDSDGSFFLYSKLTVTKEEWQQGFVFSCSVMHEALHNHYTQKSLSLSPGK
heavy 2: not shown
light: DIVLTQTPLSLPVSLGDQASISCRSSQSLVHRNGNTYLHWYLQKPGQSPKLLIYRISNRFSGVPDRFSGSGSGTDFTLKISRVEAEDLGVYFCSQSTHVPLTFGAGTKLEIKRTVAAPSVFIFPPSDEQLKSGTASVVCLLNNFYPREAKVQWKVDNALQSGNSQESVTEQDSKDSTYSLSSTLTLSKADYEKHKVYACEVTHQGLSSPVTKSFNRGEC
notes: Knob:hole:light chain were co-transfected 1:1:2
With B5, the binding result in experiment [4] is given as “binds”.

B6: Clone 2F09 (antibody, V domains shown)
VH: EVHVKQSGPELVEPGASVKISCKTSGYTFASYAISWVKQRTGQGLEWIGEIYPGSGDTYYDEKFKGKATLTADKSSSTAYMELRSLTSEDSAVYFCASDYDAYWGQGTLVTVSA
VL: DIVLTQTPLSLPVSLGDQASISCRSSQSLVHRNGNTYLHWYLQKPGQSPKLLIYRISNRFSGVPDRFSGSGSGTDFTLKISRVEAEDLGVYFCSQSTHVPLTFGAGTKLEIK
notes: as for B1
In the case of B6, in experiment [1], the Kd stood at 1.63 nM, the koff amounted to 0.0015 s⁻¹ and the kon came out at 920000 M⁻¹ s⁻¹.

B7: Clone 2D02 (antibody, V domains shown)
VH: EVKLQESGPGLVKPSQSLSLTCSVTGYSITSGYYWNWIRQFPGNKLEWLGFISSDGNSDYNPSLKNRISVTRDTSKNQFFLQLNSVTTEDTATYYCLRGDVDWGQGTTLTVSS
VL: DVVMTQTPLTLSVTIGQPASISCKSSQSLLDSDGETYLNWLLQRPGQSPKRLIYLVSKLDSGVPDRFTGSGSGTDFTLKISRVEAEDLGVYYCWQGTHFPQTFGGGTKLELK
notes: Biacore: mouse variable regions with human IgG1 and kappa constant regions
Take B7: in experiment [1], the Kd was 6.38 nM, the koff was 0.0003 s⁻¹ and the kon turned out to be 47000 M⁻¹ s⁻¹.

B8: Clone 2F10 (antibody, human IgG1, V domains shown)
VH: EVKLQESGPGLVKPSQSLSLTCSVTGYSITSGYYWNWIRQFPGNKLEWLGYISDDGRNNYNPSLKNRISITRDTSKNQLFLKLNSVTTEDTATYYCVRGDYGPWGQGTTVTVSS
VL: DVVMTQTPLTLSVTIGQPAFISCKSNQSLLDYDGETYLNWLFLRPGQSPKRLIYLVSKQDSGVPDRFTGIGSGTDFTLKINRVEAEDLGIYYCWQGTHFPQTFGGGTKLELK
notes: Biacore: mouse variable regions with human IgG1 and kappa constant regions; A mouse IgG version was also used elsewhere
For B8, in experiment [1], the Kd turned out to be 6.7 nM, the koff was determined as 0.00067 s⁻¹ and the kon stood at 100000 M⁻¹ s⁻¹.
